Experimental data taken from patent EP4635983A1 (Ymmunobio AG, dated 2025).
Where no end group is shown, it is not given here.

Key:
[1] = biological target: T1, recombinant human NPTXR (rhNPTXR; Ala24 to Ala500 of Acc no. #O95502) (human, UniProt O95502 24-500); experiment: ELISA, rhNPTXR immobilized on plate, antibody titrated from 10 ug/ml, anti-human IgG Fc-HRP detection
T1 construct: range 24-500; Recombinant protein immobilized on the ELISA plate
T1 sequence (looked up): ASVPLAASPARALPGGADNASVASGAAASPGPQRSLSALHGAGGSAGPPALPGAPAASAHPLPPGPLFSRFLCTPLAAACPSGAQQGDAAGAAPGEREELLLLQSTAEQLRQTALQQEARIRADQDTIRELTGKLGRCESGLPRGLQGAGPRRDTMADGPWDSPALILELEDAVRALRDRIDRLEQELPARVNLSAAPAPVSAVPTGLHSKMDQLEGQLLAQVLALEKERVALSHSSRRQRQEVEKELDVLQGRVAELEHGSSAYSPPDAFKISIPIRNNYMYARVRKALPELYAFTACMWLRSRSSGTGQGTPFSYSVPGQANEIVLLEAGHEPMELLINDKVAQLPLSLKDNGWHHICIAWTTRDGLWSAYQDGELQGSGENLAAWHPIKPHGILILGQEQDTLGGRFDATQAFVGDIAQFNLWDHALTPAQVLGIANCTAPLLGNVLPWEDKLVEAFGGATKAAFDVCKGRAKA

[2] = biological target: T2, peptide (mNPTXR) representing the mouse NPTXR epitope space (mouse, also: biotinylated, position not given here); experiment: ELISA, biotinylated mNPTXR peptide captured by streptavidin, antibody titrated from 10 ug/ml, anti-human IgG Fc-HRP detection
T2 construct: Immobilized on the ELISA plate by streptavidin capture; also called Bio-mNPTXR; Strep + Bio-mNPTXR
T2 peptide: CESGLPRGLQDAGPRRDT

B1: YB-800 (antibody, human IgG1, V domains shown)
VH: QVQLVQSGAEVKKPGASVKVSCKASGYTFTNYGMNWVRQAPGQRLEWMGWINTDIGEPTYSQKFQGRVTITRDTSASTAYMELSSLRSEDTAVYYCAREMDVWGQGTTVTVSS
VL: DIQMTQSPSSLSASVGDRVTITCRASQSISDYLHWYQQKPGKAPKLLIKYVSHSISGVPSRFSGSGSGTDFTLTISSLQPEDFATYYCLNGHSFPFTFGGGTKVEIK
**Q.** With B1 as the binder, how does the EC50 [1] read?
**A.** 0.0271 µg/mL

**Q.** What about the EC50 [2] of the same binder?
**A.** 0.0309 µg/mL
